Results published in IntAct's records for PubMed 24217340.

B1: Suppressor of fused homolog (Homo sapiens), Q9UMX1 (parent)
chain: MAELRPSGAPGPTAPPAPGPTAPPAFASLFPPGLHAIYGECRRLYPDQPNPLQVTAIVKYWLGGPDPLDYVSMYRNVGSPSANIPEHWHYISFGLSDLYGDNRVHEFTGTDGPSGFGFELTFRLKRETGESAPPTWPAELMQGLARYVFQSENTFCSGDHVSWHSPLDNSESRIQHMLLTEDPQMQPVQTPFGVVTFLQIVGVCTEELHSAQQWNGQGILELLRTVPIAGGPWLITDMRRGETIFEIDPHLQERVDKGIETDGSNLSGVSAKCAWDDLSRPPEDDEDSRSICIGTQPRRLSGKDTEQIRETLRRGLEINSKPVLPPINPQRQNGLAHDRAPSRKDSLESDSSTAIIPHELIRTRQLESVHLKFNQESGALIPLCLRGRLLHGRHFTYKSITGDMAITFVSTGVEGAFATEEHPYAAHGPWLQILLTEEFVEKMLEDLEDLTSPEEFKLPKEYSWPEKKLKVSILPDVVFDSPLH
B2: Zinc finger protein GLI2 (Mus musculus), Q0VGT2 (parent)
chain: METSAPAPALEKKEAKSGLLEDSSFPDPGKKACPLAVAAAVAAHGVPQQLLPAFHAPLPIDMRHQEGRYHYDPHSVHSVHGPPTLSGSPVISDISLIRLSPHPAGPGESPFSAHHPYVNPHMEHYLRSVHSSPTLSMISAARGLSPADVAHEHLKERGLFSLAAPGTNPSDYYHQMTLMASHPTPYGDLLMQSGGAASAPHLHDYLNPVDASRFSSPRVTPRLSRKRALSISPLSDASLDLQRMIRTSPNSLVAYINNSRSSSAASGSYGHLSAGALSPAFTFPHPINPVAYQQILSQQRGLGSAFGHTPPLIQPSPTFLAQQPMTLTSISTMPTQLSSSSSNCLNDANQNKQNSESAVSSTVNPITIHKRSKVKTEAEGLRPASPLGLTQEQLADLKEDLDRDDCKQEAEVVIYETNCHWADCTKEYDTQEQLVHHINNEHIHGEKKEFVCRWQACTREQKPFKAQYMLVVHMRRHTGEKPHKCTFEGCSKAYSRLENLKTHLRSHTGEKPYVCEHEGCNKAFSNASDRAKHQNRTHSNEKPYICKIPGCTKRYTDPSSLRKHVKTVHGPDAHVTKKQRNDVHVRAPLLKENGDNEASAEPGGRGPEESVEASSTSHTVEDCLHIKAIKTESSGLCQSSPGAQSSCSSEPSPLGSAPNNDSGMEMPGTGPGSLGDLTALADTCPGADTSALAAPSTGGLQLRKHMSTVHRFEQLKREKLKSLKDSCSWAGPAPHTRNTKLPPLPVNGSVLENFNNTGGGGPAGLLPSQRLPELTEVTMLSQLQERRDSSTSTMSSAYTVSRRSSGISPYFSSRRSSEASPLGGLRPHNASSADSYDPISTDASRRSSEASQCSGGGPGLLNLTPAQQYNLRAKYAAATGGPPPTPLPGLDRVSLRTRLALLDAPERALPGACPHPLGPRRGSDGPTYSHGHGHGYAGAAPAFPHEGPNSSTRRASDPVRRPDPLILPRVQRFHSTHNMNPGSLPPCADRRGLHVQSHPSVDSNLTRNAYSPRPPSINENVVMEAVAAGVDGPGLECDLGLVEDELVLPDDVVQYIKAHTGGTLDDGIRQGYPTEGTGFPENSKLPSPGLQGHRRLAAADSNMGPSAPGLGGCQLSYSPSSNLNKSNMPVQWNEVSSGTVDALPTQVKPPPFPHSNLAVVQQKPAFGQYPGYNPQSVQSSSGGLDSTQPHLQLRGAPSASRGSYTQQPRQPAAGSQCLGMSAAMSPQASYSQAHPQLSPNIVSGSLNQFSPSCSNMAAKPSHLGLPQQMEVVPNATIMNGHQREHGVPNSSLAAVSQPHPVLSYPQQDSYQQGSNLLSSHQPGFMESQQNAGFGLMQPRPPLEPNTASRHRGVRSGQQQLYARTTGQAMVTSANQETAEAMPKGPAGTMVSLAPQPSQDTGRAQDQNTLYYYGQIHMYEQNGGCPAVQPQPPQPQACSDSIQPEPLPSPGVNQVSSTVDSQLLEPPQIDFDAIMDDGDHSSLFSGALSPTLLHNLSQNSSRLTTPRNSLTLPSIPAGISNMAVGDMSSMLTSLAEESKFLNMMT
partner: B1 chain

Variants of: B1
Conditions: with gli2_mouse Gli2, Q0VGT2

| effect of a mutation on the interaction | Variant |
| --- | --- |
| decreasing interaction | MAELRPSGAPGPTAPPAPGPTAPPAFASLFPPGLHAIYGECRRLYPDQPNPLQVTAIVKYWLGGPDPLDYVSMYRNVGSPSANIPEHWHYISFGLSDLYGDNRVHEFTGTDGPSGFGFELTFRLKRETGESAPPTWPAELMQGLARYVFQSENTFCSGDHVSWHSPLDNSESRIQHMLLTEDPQMQPVQTPFGVVTFLQIVGVCTEELHSAQQWNGQGILELLRTVPIAGGPWLITDMRRGETIFEIDPHLQERVDKGIETDGSNLSGVSAKCAWDDLSRPPEDDEDSRSICIGTQPRRLSGKDTEQIRETLRRGLEINSKPVLPPINPQRQNGLAHDRAPSRKDSLESDSSTAIIPHELIRTRQLESVHLKFNQESGARIPLCLRGRLLHGRHFTYKSITGDMAITFVSTGVEGAFATEEHPYAAHGPWLQILLTEEFVEKMLEDLEDLTSPEEFKLPKEYSWPEKKLKVSILPDVVFDSPLH [L380R] |
| decreasing interaction | D159R |

Variants of: B1
Conditions: with gli2_mouse Gli2, Q0VGT2
Remark: another data set of the same source

| effect of a mutation on the interaction | Variant |
| --- | --- |
| disrupting interaction | MAELRPSGAPGPTAPPAPGPTAPPAFASLFPPGLHAIYGECRRLYPDQPNPLQVTAIVKYWLGGPDPLDYVSMYRNVGSPSANIPEHWHYISFGLSDLYGDNRVHEFTGTDGPSGFGFELTFRLKRETGESAPPTWPAELMQGLARYVFQSENTFCSGDHVSWHSPLDNSESRIQHMLLTEDPQMQPVQTPFGVVTFLQIVGVCTEELHSAQQWNGQGILELLRTVPIAGGPWLITDMRRGETIFEIDPHLQERVDKGIETDGSNLSGVSAKCAWDDLSRPPEDDEDSRSICIGTQPRRLSGKDTEQIRETLRRGLEINSKPVLPPINPQRQNGLAHDRAPSRKDSLESDSSTAIIPHELIRTRQLESVHLKFNQESGARIPLCLRGRLLHGRHFTYKSITGDMAITFVSTGVEGAFATEEHPYAAHGPWLQILLTEEFVEKMLEDLEDLTSPEEFKLPKEYSWPEKKLKVSILPDVVFDSPLH [L380R] |
| disrupting interaction | D159R |

Variants of: B1
Conditions: with gli1_human GLI1, P08151

| effect of a mutation on the interaction | Variant |
| --- | --- |
| disrupting interaction | MAELRPSGAPGPTAPPAPGPTAPPAFASLFPPGLHAIYGECRRLYPDQPNPLQVTAIVKYWLGGPDPLDYVSMYRNVGSPSANIPEHWHYISFGLSDLYGDNRVHEFTGTDGPSGFGFELTFRLKRETGESAPPTWPAELMQGLARRVFQSENTACSGRHVSWHSPLDNSESRIQHMLLTEDPQMQPVQTPFGVVTFLQIVGVCTEELHSAQQWNGQGILELLRTVPIAGGPWLITDMRRGETIFEIDPHLQERVDKGIETDGSNLSGVSAKCAWDDLSRPPEDDEDSRSICIGTQPRRLSGKDTEQIRETLRRGLEINSKPVLPPINPQRQNGLAHDRAPSRKDSLESDSSTAIIPHELIRTRQLESVHLKFNQESGARIPLCLRGRLLHGRHFTYKSITGDMAITFVSTGVEGAFATEEHPYAAHGPWLQILLTEEFVEKMLEDLEDLTSPEEFKLPKEYSWPEKKLKVSILPDVVFDSPLH [Y147R;F155A;D159R;L380R] |

Variants of: B1
Conditions: with gli1_human GLI1, P08151
Remark: another data set of the same source

| effect of a mutation on the interaction | Variant |
| --- | --- |
| disrupting interaction | MAELRPSGAPGPTAPPAPGPTAPPAFASLFPPGLHAIYGECRRLYPDQPNPLQVTAIVKYWLGGPDPLDYVSMYRNVGSPSANIPEHWHYISFGLSDLYGDNRVHEFTGTDGPSGFGFELTFRLKRETGESAPPTWPAELMQGLARYVFQSENTFCSGAHVSWHSPLDNSESRIQHMLLTEDPQMQPVQTPFGVVTFLQIVGVCTEELHSAQQWNGQGILELLRTVPIAGGPWLITDMRRGETIFEIDPHLQERVDKGIETDGSNLSGVSAKCAWDDLSRPPEDDEDSRSICIGTQPRRLSGKDTEQIRETLRRGLEINSKPVLPPINPQRQNGLAHDRAPSRKDSLESDSSTAIIPHELIRTRQLESVHLKFNQESGALIPLCLRGRLLHGRHFTYKSITGDMAITFVSTGVEGAFATEEHPYAAHGPWLQILLTEEFVEKMLEDLEDLTSPEEFKLPKEYSWPEKKLKVSILPDVVFDSPLH [D159A] |
| disrupting interaction | D159R |
| disrupting interaction | MAELRPSGAPGPTAPPAPGPTAPPAFASLFPPGLHAIYGECRRLYPDQPNPLQVTAIVKYWLGGPDPLDYVSMYRNVGSPSANIPEHWHYISFGLSDLYGDNRVHEFTGTDGPSGFGFELTFRLKRETGESAPPTWPAELMQGLARRVFQSENTACSGRHVSWHSPLDNSESRIQHMLLTEDPQMQPVQTPFGVVTFLQIVGVCTEELHSAQQWNGQGILELLRTVPIAGGPWLITDMRRGETIFEIDPHLQERVDKGIETDGSNLSGVSAKCAWDDLSRPPEDDEDSRSICIGTQPRRLSGKDTEQIRETLRRGLEINSKPVLPPINPQRQNGLAHDRAPSRKDSLESDSSTAIIPHELIRTRQLESVHLKFNQESGALIPLCLRGRLLHGRHFTYKSITGDMAITFVSTGVEGAFATEEHPYAAHGPWLQILLTEEFVEKMLEDLEDLTSPEEFKLPKEYSWPEKKLKVSILPDVVFDSPLH [Y147R;F155A;D159R] |

Variants of: B2
Conditions: with sufu_human SUFU, Q9UMX1

| effect of a mutation on the interaction | Variant |
| --- | --- |
| disrupting interaction | G270V;H271E;L272D |
| disrupting interaction | G270A;H271A;L272D |
